Test results as given in article PMC12804361.

Legend:
VcCap5 [1] = test: AUC; sedimentation velocity, apo VcCap5 at 0.8 mg/ml, 20 mM Tris-HCl pH 7.5, 200 mM NaCl, 55,000 rpm, 20 °C; c(s) fit in SEDFIT; monomer to dimer
VcCap5 [2] = test: AUC; sedimentation velocity, VcCap5 with 3'2'-cGAMP, 0.8 mg/ml, 20 mM Tris-HCl pH 7.5, 200 mM NaCl, 55,000 rpm, 20 °C; c(s) fit in SEDFIT; dimer to tetramer

VcCap5 (enzyme) gave a stoichiometry N (VcCap5 [1]) of 2 and a stoichiometry N (VcCap5 [2]) of 4.
